Measured values from patent US20210246166A1 (Bayer, published 2021).
Bridge positions count the residues as written; N and C are the ends. Square brackets hold non-standard residues; d marks the D form. Ends that are not written are not given here. * marks the point of attachment. Pro(3S,4R-methano) = O=C(O)[C@H]1NC[C@@H]2C[C@@H]21; Benzoyl(3-COOH) = O=C(O)c1cccc(C(=O)*)c1; Benzoyl(4-COOH) = O=C(O)c1ccc(C(=O)*)cc1; Oic = O=C(O)[C@@H]1C[C@@H]2CCCC[C@@H]2N1; tBuAla = CC(C)(C)C[C@H](N)C(=O)O; Pen = CC(C)(S)[C@H](N)C(=O)O; PEG2 = NCCOCCOCCC(=O)O; Sar = CNCC(=O)O

T1: recombinant rat MASP1 active protease (amino acids 302-704, C-terminal His Tag) (rat, UniProt Q8CHN8 302-704)
T1 sequence: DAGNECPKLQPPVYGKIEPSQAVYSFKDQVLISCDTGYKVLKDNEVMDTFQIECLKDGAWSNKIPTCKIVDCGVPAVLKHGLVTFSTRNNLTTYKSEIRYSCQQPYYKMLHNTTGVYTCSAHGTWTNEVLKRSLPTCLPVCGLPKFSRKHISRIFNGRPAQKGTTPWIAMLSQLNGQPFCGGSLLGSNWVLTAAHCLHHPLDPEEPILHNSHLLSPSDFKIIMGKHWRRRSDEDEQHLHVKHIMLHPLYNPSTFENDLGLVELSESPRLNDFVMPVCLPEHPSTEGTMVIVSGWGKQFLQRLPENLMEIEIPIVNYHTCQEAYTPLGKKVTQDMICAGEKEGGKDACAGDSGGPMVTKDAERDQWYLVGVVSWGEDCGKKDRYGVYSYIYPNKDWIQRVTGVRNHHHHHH


Tests used:
[1] = target: T1, recombinant rat MASP1 active protease …; assay: cell-based or functional assay
[2] = target: recombinant rat MASP2 active protease (amino acids 296-685, C-terminal His Tag) (rat, UniProt Q9JJS8 296-685); assay: cell-based or functional assay
recombinant rat MASP2 active protease (amino acids 296-685, C-terminal His Tag), sequence (Q9JJS8 other isoform, or with tags, fused parts or gaps limits assumed): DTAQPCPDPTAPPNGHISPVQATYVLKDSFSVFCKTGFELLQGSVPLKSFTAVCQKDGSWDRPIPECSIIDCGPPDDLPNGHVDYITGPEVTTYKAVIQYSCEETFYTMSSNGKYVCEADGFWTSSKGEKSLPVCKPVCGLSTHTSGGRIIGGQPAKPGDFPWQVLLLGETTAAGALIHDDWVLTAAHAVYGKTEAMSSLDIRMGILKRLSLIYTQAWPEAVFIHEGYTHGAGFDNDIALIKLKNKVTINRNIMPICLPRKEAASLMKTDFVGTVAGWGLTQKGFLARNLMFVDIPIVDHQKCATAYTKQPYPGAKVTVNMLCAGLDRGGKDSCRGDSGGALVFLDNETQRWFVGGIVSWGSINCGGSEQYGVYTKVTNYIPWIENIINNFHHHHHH

| Binder | rat MASP1 IC50 [1] [nM] | rat MASP2 IC50 [2] [nM] |
| --- | --- | --- |
| {Benzoyl(3-COOH)}-GICSRSLP[Oic]I[Pen]IPD-OH (disulfide 3-11; SMILES CC[C@H](C)[C@H](NC(=O)CNC(=O)c1cccc(C(=O)O)c1)C(=O)N[C@H]1CSSC(C)(C)[C@@H](C(=O)N[C@H](C(=O)N2CCC[C@H]2C(=O)N[C@@H](CC(=O)O)C(=O)O)[C@@H](C)CC)NC(=O)[C@H]([C@@H](C)CC)NC(=O)[C@@H]2C[C@@H]3CCCC[C@@H]3N2C(=O)[C@@H]2CCCN2C(=O)[C@H](CC(C)C)NC(=O)[C@H](CO)NC(=O)[C@H](CCCNC(=N)N)NC(=O)[C@H](CO)NC1=O) [Example 491: (3-Carboxybenzoic acid)-GIC+SRSLP-(Oic)-I-(Pen)+IPD-OH] | 20 | 23 |
| {Benzoyl(4-COOH)}-GICSRSLP[Oic]I[Pen]IPD-OH (disulfide 3-11; SMILES CC[C@H](C)[C@H](NC(=O)CNC(=O)c1ccc(C(=O)O)cc1)C(=O)N[C@H]1CSSC(C)(C)[C@@H](C(=O)N[C@H](C(=O)N2CCC[C@H]2C(=O)N[C@@H](CC(=O)O)C(=O)O)[C@@H](C)CC)NC(=O)[C@H]([C@@H](C)CC)NC(=O)[C@@H]2C[C@@H]3CCCC[C@@H]3N2C(=O)[C@@H]2CCCN2C(=O)[C@H](CC(C)C)NC(=O)[C@H](CO)NC(=O)[C@H](CCCNC(=N)N)NC(=O)[C@H](CO)NC1=O) [Example 490: (4-Carboxybenzoic acid)-GIC+SRSLP-(Oic)-I-(Pen)+IPD-OH] | 12.5 | 15 |
| [Sar]ICSRS[tBuAla]P[Pro(3S,4R-methano)]I[Pen]IPD-OH (disulfide 3-11; N-terminus assumed; SMILES CC[C@H](C)[C@H](NC(=O)CNC)C(=O)N[C@H]1CSSC(C)(C)[C@@H](C(=O)N[C@H](C(=O)N2CCC[C@H]2C(=O)N[C@@H](CC(=O)O)C(=O)O)[C@@H](C)CC)NC(=O)[C@H]([C@@H](C)CC)NC(=O)[C@@H]2[C@H]3C[C@H]3CN2C(=O)[C@@H]2CCCN2C(=O)[C@H](CC(C)(C)C)NC(=O)[C@H](CO)NC(=O)[C@H](CCCNC(=N)N)NC(=O)[C@H](CO)NC1=O) | 485 | 253 |
| [Sar]ICSRSLP[Oic]I[Pen]IPT-OH (disulfide 3-11; N-terminus assumed; SMILES CC[C@H](C)[C@H](NC(=O)CNC)C(=O)N[C@H]1CSSC(C)(C)[C@@H](C(=O)N[C@H](C(=O)N2CCC[C@H]2C(=O)N[C@H](C(=O)O)[C@@H](C)O)[C@@H](C)CC)NC(=O)[C@H]([C@@H](C)CC)NC(=O)[C@@H]2C[C@@H]3CCCC[C@@H]3N2C(=O)[C@@H]2CCCN2C(=O)[C@H](CC(C)C)NC(=O)[C@H](CO)NC(=O)[C@H](CCCNC(=N)N)NC(=O)[C@H](CO)NC1=O) [Example 492: ((N-Me)G)-IC+SRSLP-(Oic)-I-(Pen)+IPT-OH] | 65 | 81 |
| [(S)‑Piperidine‑3‑Carboxylic Acid]ICSRSLP[Oic]I[Pen]IPD-OH (disulfide 3-11) [Example 489: ((S)-Piperidine-3-Carboxylic Acid)-IC+SRSLP-(Oic)-I-(Pen)+IPD-OH] | 42 | 22 |
| [(R)‑Piperidine‑3‑Carboxylic Acid]ICSRSLP[Oic]I[Pen]IPD-OH (disulfide 3-11) [Example 488: ((R)-Piperidine-3-Carboxylic Acid)-IC+SRSLP-(Oic)-I-(Pen)+IPD-OH] | 41 | 36 |
| [Sar]ICSRSLP[Oic]I[Pen]IPR-OH (disulfide 3-11; N-terminus assumed; SMILES CC[C@H](C)[C@H](NC(=O)CNC)C(=O)N[C@H]1CSSC(C)(C)[C@@H](C(=O)N[C@H](C(=O)N2CCC[C@H]2C(=O)N[C@@H](CCCNC(=N)N)C(=O)O)[C@@H](C)CC)NC(=O)[C@H]([C@@H](C)CC)NC(=O)[C@@H]2C[C@@H]3CCCC[C@@H]3N2C(=O)[C@@H]2CCCN2C(=O)[C@H](CC(C)C)NC(=O)[C@H](CO)NC(=O)[C@H](CCCNC(=N)N)NC(=O)[C@H](CO)NC1=O) [Example 487: ((N-Me)G)-IC+SRSLP-(Oic)-I-(Pen)+IPR-OH] | 67 | 38 |

More lines, now with the values ahead:

| rat MASP1 IC50 [1] [nM] | rat MASP2 IC50 [2] [nM] | Binder |
| --- | --- | --- |
| 58 | 39 | [Sar]ICSRS[tBuAla]PPI[Pen]IP[Sar][Sar][Sar]-OH (disulfide 3-11; N-terminus assumed; SMILES CC[C@H](C)[C@H](NC(=O)CNC)C(=O)N[C@H]1CSSC(C)(C)[C@@H](C(=O)N[C@H](C(=O)N2CCC[C@H]2C(=O)N(C)CC(=O)N(C)CC(=O)N(C)CC(=O)O)[C@@H](C)CC)NC(=O)[C@H]([C@@H](C)CC)NC(=O)[C@@H]2CCCN2C(=O)[C@@H]2CCCN2C(=O)[C@H](CC(C)(C)C)NC(=O)[C@H](CO)NC(=O)[C@H](CCCNC(=N)N)NC(=O)[C@H](CO)NC1=O) [Example 497: ((N-Me)G)-IC+SRS-((tBu)A)-PPI-(Pen)+IP-((N-Me)G)-((N-Me)G)-((N-Me)G)-OH] |
| 44 | 49 | [Sar]ICSRSLP[Oic]I[Pen]IPY-OH (disulfide 3-11; N-terminus assumed; SMILES CC[C@H](C)[C@H](NC(=O)CNC)C(=O)N[C@H]1CSSC(C)(C)[C@@H](C(=O)N[C@H](C(=O)N2CCC[C@H]2C(=O)N[C@@H](Cc2ccc(O)cc2)C(=O)O)[C@@H](C)CC)NC(=O)[C@H]([C@@H](C)CC)NC(=O)[C@@H]2C[C@@H]3CCCC[C@@H]3N2C(=O)[C@@H]2CCCN2C(=O)[C@H](CC(C)C)NC(=O)[C@H](CO)NC(=O)[C@H](CCCNC(=N)N)NC(=O)[C@H](CO)NC1=O) [Example 493: ((N-Me)G)-IC+SRSLP-(Oic)-I-(Pen)+IPY-OH] |
| 38 | 62 | [Sar]ICSRSLP[Oic]I[Pen]IPDA-OH (disulfide 3-11; N-terminus assumed; SMILES CC[C@H](C)[C@H](NC(=O)CNC)C(=O)N[C@H]1CSSC(C)(C)[C@@H](C(=O)N[C@H](C(=O)N2CCC[C@H]2C(=O)N[C@@H](CC(=O)O)C(=O)N[C@@H](C)C(=O)O)[C@@H](C)CC)NC(=O)[C@H]([C@@H](C)CC)NC(=O)[C@@H]2C[C@@H]3CCCC[C@@H]3N2C(=O)[C@@H]2CCCN2C(=O)[C@H](CC(C)C)NC(=O)[C@H](CO)NC(=O)[C@H](CCCNC(=N)N)NC(=O)[C@H](CO)NC1=O) [Example 494: ((N-Me)G)-IC+SRSLP-(Oic)-I-(Pen)+IPDA-OH] |
| 45 | 66 | [Sar]ICSRSLP[Oic]I[Pen]IPG[dD]-OH (disulfide 3-11; N-terminus assumed; SMILES CC[C@H](C)[C@H](NC(=O)CNC)C(=O)N[C@H]1CSSC(C)(C)[C@@H](C(=O)N[C@H](C(=O)N2CCC[C@H]2C(=O)NCC(=O)N[C@H](CC(=O)O)C(=O)O)[C@@H](C)CC)NC(=O)[C@H]([C@@H](C)CC)NC(=O)[C@@H]2C[C@@H]3CCCC[C@@H]3N2C(=O)[C@@H]2CCCN2C(=O)[C@H](CC(C)C)NC(=O)[C@H](CO)NC(=O)[C@H](CCCNC(=N)N)NC(=O)[C@H](CO)NC1=O) [Example 495: ((N-Me)G)-IC+SRSLP-(Oic)-I-(Pen)+IPGd-OH] |
| 31 | 31 | [Sar]ICSRS[tBuAla]PPI[Pen]IP-{PEG5‑CH2CO2H(18 atoms)-OH} (disulfide 3-11) [Example 496: ((N-Me)G)-IC+SRS-((tBu)A)-PPI-(Pen)+IP-(PEG5-CH2CO2H(18 atoms))-OH] |
| 44 | 42 | [Sar]ICSRS[tBuAla]PPI[Pen]IP-{PEG2-OH} (disulfide 3-11) [Example 498: ((N-Me)G)-IC+SRS-((tBu)A)-PPI-(Pen)+IP-(PEG1(10 atoms))-OH] |
